Laboratory results published in PMC11347159, “MUT-7 exoribonuclease activity and localization are mediated by an ancient domain” (Nucleic Acids Research, 2023).

Key:
MUT-7 FL = molecular target: T1, MUT-7 FL (Caenorhabditis elegans, UniProt P34607 1-910); test: fluorescence polarization; 5 mM EDTA, 150 mM NaCl; Hill h 1.195; FP, 50 nM RNA, 30 min, room temperature; C. elegans proteins: 20 mM HEPES/NaOH pH 7.5, 150 mM NaCl, 10% glycerol, 5 mM EDTA; human proteins: 20 mM HEPES/NaOH pH 7.5, 250 mM NaCl; details: protein: recombinant; tags: His10-MBP-3C (N), 3C cleavage in purification; label: 5'-FAM; single strand
T1 sequence: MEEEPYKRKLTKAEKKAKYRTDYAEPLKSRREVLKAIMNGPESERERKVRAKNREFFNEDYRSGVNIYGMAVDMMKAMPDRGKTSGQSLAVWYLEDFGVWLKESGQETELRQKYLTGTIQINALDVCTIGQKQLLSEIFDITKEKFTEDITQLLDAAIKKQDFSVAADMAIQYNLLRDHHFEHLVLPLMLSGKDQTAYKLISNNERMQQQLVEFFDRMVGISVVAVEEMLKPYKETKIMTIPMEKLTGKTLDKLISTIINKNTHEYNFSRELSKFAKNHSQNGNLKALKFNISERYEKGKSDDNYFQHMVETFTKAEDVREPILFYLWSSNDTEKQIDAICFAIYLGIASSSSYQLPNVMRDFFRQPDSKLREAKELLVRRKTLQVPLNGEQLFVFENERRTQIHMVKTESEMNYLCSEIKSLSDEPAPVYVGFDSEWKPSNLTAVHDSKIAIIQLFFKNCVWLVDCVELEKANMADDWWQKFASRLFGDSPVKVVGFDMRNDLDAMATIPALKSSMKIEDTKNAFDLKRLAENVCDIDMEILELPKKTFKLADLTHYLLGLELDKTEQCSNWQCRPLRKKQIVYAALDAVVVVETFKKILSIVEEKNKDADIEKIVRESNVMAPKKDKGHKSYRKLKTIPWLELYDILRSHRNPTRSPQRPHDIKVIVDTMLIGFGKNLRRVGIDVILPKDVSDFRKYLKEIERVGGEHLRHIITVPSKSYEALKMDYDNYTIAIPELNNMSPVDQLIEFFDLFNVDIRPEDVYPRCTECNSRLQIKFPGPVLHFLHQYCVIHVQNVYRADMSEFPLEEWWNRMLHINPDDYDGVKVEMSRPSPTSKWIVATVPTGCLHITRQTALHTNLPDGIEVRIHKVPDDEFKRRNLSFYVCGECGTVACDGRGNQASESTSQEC

MUT-7 NTD-EXO = molecular target: T2, MUT-7 NTD-EXO (Caenorhabditis elegans, UniProt P34607 1-625); test: fluorescence polarization; 5 mM EDTA, 150 mM NaCl; Hill h 1.491; FP, 50 nM RNA, 30 min, room temperature; C. elegans proteins: 20 mM HEPES/NaOH pH 7.5, 150 mM NaCl, 10% glycerol, 5 mM EDTA; human proteins: 20 mM HEPES/NaOH pH 7.5, 250 mM NaCl; details: protein: recombinant; label: 5'-FAM; single strand
T2 sequence: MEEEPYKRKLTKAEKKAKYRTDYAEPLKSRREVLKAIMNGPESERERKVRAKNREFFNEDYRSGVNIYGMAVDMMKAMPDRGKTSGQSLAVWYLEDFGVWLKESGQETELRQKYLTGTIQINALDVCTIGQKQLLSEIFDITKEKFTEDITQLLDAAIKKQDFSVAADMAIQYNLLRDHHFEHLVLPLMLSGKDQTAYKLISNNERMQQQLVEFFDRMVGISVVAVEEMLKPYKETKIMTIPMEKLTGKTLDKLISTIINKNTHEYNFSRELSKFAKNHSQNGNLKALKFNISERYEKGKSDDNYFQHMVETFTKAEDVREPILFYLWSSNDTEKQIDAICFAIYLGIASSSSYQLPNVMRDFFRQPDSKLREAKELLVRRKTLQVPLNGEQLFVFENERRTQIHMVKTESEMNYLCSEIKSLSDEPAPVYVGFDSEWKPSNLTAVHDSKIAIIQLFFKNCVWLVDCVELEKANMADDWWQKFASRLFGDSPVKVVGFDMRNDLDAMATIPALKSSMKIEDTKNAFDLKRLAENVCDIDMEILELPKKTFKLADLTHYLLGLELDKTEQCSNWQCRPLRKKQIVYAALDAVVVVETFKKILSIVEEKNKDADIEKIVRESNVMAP

EXD3 FL(D399A) = molecular target: T3, EXD3 FL(D399A) (Homo sapiens, UniProt Q8N9H8 1-876, D399A); test: fluorescence polarization; 250 mM NaCl; Hill h 1.029; FP, 50 nM RNA, 30 min, room temperature; C. elegans proteins: 20 mM HEPES/NaOH pH 7.5, 150 mM NaCl, 10% glycerol, 5 mM EDTA; human proteins: 20 mM HEPES/NaOH pH 7.5, 250 mM NaCl; details: protein: recombinant; label: 5'-FAM; single strand
T3 sequence: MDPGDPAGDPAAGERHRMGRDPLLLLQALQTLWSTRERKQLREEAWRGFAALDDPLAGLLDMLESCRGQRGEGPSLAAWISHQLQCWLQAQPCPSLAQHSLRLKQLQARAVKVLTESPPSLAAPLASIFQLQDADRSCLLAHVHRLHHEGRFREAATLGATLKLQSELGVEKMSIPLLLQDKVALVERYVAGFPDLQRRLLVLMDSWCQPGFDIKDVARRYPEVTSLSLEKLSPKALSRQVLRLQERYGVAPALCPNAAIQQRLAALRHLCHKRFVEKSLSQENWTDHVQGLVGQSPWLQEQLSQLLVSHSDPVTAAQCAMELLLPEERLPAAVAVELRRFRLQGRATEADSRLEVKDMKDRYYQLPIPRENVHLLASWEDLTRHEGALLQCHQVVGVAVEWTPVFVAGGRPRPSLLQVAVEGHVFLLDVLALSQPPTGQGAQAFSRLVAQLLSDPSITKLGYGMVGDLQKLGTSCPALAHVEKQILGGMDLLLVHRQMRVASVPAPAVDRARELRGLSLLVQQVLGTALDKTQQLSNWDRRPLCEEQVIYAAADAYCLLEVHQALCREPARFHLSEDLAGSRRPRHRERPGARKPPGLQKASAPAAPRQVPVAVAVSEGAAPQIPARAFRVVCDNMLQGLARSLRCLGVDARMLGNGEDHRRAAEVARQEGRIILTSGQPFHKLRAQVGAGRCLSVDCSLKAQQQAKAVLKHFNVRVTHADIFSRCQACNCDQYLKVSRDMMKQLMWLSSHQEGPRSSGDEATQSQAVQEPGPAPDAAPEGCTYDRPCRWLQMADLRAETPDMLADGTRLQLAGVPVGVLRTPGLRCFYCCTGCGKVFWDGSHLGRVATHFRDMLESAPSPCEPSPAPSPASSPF

EXD3 NTD-EXO(D399A) = molecular target: T4, EXD3 NTD-EXO(D399A) (Homo sapiens, UniProt Q8N9H8 1-582, D399A); test: fluorescence polarization; 250 mM NaCl; Hill h 1.1; FP, 50 nM RNA, 30 min, room temperature; C. elegans proteins: 20 mM HEPES/NaOH pH 7.5, 150 mM NaCl, 10% glycerol, 5 mM EDTA; human proteins: 20 mM HEPES/NaOH pH 7.5, 250 mM NaCl; details: protein: recombinant; label: 5'-FAM; single strand
T4 sequence: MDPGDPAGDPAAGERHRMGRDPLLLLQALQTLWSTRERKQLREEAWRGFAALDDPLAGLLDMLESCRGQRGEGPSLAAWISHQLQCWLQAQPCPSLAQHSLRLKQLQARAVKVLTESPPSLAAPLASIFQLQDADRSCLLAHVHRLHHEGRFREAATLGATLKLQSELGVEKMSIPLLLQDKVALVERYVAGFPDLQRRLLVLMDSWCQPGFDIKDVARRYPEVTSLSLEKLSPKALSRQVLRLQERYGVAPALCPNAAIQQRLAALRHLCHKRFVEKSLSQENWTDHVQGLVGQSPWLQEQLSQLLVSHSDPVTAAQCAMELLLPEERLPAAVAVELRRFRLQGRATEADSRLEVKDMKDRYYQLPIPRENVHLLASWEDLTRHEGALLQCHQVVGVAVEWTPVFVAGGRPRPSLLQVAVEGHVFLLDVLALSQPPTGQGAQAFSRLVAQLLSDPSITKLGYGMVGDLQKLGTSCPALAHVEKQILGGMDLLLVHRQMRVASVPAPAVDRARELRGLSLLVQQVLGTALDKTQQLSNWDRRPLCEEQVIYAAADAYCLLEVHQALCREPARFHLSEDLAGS

[1] = molecular target: T5, MUT-7^FL/MUT-8^FL complex (Caenorhabditis elegans, UniProt P34607 1-910; Q19672 1-578); test: pull-down; purified proteins (5 μM) pre-incubated 30 min at 4°C in 20 mM HEPES/NaOH pH 7.5, 150 mM NaCl, 10% glycerol, 0.05% IGEPAL, 2 mM DTT; GST-tagged MUT-16 constructs held on glutathione resin; SDS-PAGE, Coomassie; details: both partners purified
T5 construct: C. elegans exonuclease MUT-7, residues 1-910 (full length); C. elegans MUT-8 (RDE-2), residues 1-578 (full length); Complex formed beforehand by co-expression; also called full-length MUT-7/MUT-8; MUT-7/MUT-8; source: E. coli BL21(DE3) derivative, co-expressed, purified through several chromatographic steps
T5 sequence (looked up) 1: T1 sequence
T5 sequence (looked up) 2: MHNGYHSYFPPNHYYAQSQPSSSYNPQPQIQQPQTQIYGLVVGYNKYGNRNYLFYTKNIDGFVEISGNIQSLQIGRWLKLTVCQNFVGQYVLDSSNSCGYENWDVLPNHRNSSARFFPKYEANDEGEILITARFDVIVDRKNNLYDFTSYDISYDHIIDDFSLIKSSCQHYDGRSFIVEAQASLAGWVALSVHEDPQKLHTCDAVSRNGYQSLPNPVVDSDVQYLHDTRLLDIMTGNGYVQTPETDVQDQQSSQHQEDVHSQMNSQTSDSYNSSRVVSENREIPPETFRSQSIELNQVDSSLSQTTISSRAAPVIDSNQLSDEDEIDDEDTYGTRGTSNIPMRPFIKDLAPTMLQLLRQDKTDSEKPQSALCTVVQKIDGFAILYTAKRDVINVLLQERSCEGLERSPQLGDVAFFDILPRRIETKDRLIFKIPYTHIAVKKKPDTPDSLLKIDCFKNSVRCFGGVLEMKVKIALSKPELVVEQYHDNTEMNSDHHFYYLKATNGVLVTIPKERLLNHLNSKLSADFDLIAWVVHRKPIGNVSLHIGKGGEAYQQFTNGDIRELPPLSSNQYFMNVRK

[2] = molecular target: T6, MUT-8^NTD (1–235), purified (Caenorhabditis elegans, UniProt Q19672 1-235); test: ITC; isothermal titration calorimetry of MUT-8^NTD and MUT-16^584–724; details: both partners purified
T6 construct: C. elegans MUT-8 N-terminal domain, residues 1-235
T6 sequence (looked up): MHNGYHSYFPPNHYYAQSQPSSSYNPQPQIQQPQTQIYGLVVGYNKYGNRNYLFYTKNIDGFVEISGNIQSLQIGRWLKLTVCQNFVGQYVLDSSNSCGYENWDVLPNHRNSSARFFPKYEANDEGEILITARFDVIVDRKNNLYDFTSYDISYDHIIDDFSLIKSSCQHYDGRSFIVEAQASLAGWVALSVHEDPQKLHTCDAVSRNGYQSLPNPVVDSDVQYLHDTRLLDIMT

GUUGAUUGAAGAGUUC (ssRNA) [16-mer ssRNA] was tested, and the Kd (MUT-7 FL) was 2.33 µM, the Kd (MUT-7 NTD-EXO) was 18.7 µM and the Kd (EXD3 FL(D399A)) was 1.86 µM. It also gave a Kd (EXD3 NTD-EXO(D399A)) of 11.2 µM.

B1: GST-tagged MUT-16^1–724 (domain or fragment, Caenorhabditis elegans, UniProt O62011 1-724, looked up)
chain: MSESDDDYPELDISDQYIDPLGIVVGPPPASYTETDREETPMQNRTEDDTNSYGNSSGEHDYDSYLDSGDDDFDVDAYYANDNMDEPPPETIPDNLIQNVIGRNDNADYDFSDASNPEIMKRDLQLFLSSSLLSNPLKFRSGYSSDELDDCLKSCMGYSLQVTAVLLLPPEIISQLPNDSKTEHAHALVRGGWLQSKEGAFFPVISDSERETVVSLMNGSEEQHKRQERKKKEADTFESEEKEIRTLLTFNMIAELLMAVRNEYSIRSVKYQILSTAYTNMVTGAAHANIFRKYKDILQLDPEKLWNNDWFKEYTNRGTLKKFLTTARFSEIVVSQANGKTVELYFRADDEGNRPVVLFTDEHIADVRNKWKTGNQRNQNYGSQGNYRAGGQRSDDRRGPQQRRNVIVPDPNYQPSTFAGGISNNADDDGSLQPTTSSHFNRNTDRSTSRPPRAPTSPVNRVMETDPLMGQGTSSGAPQRSAIPNPFGGAPALSRSTITNGNRGPSYGDRGERVQDVGDTTSDSEITSEGSYSDEDPEQKEIKRQRRKDKLKKKQERELRSREKHTKSKQQPPSKIETRFNTYKKKSESSATDTSNTPPVDTVNVALPTPVVESSSTTAAPSIPVSTRPEVVVPPENPAPLREVGNFYSKSNHDEDRRNVQLPFTPADTHKPIKVAPKEPVRNPLLKERPSANGFINRRLPSHPAPPPVNQSQPANQPMQTAVY
notes: numbers count on the longer isoform B0379.3a.1 (O62011); also called the longest MUT-16 construct; source: E. coli BL21(DE3) derivative, purified
B1: binds [1].

B2: GST-tagged MUT-16^584–724 (domain or fragment, Caenorhabditis elegans, UniProt O62011 584-724, looked up)
chain: KKKSESSATDTSNTPPVDTVNVALPTPVVESSSTTAAPSIPVSTRPEVVVPPENPAPLREVGNFYSKSNHDEDRRNVQLPFTPADTHKPIKVAPKEPVRNPLLKERPSANGFINRRLPSHPAPPPVNQSQPANQPMQTAVY
notes: numbers count on the longer isoform B0379.3a.1 (O62011); source: E. coli BL21(DE3) derivative, purified
B2: binds [1].

B3: MUT-16^584–724 (domain or fragment, Caenorhabditis elegans, UniProt O62011 584-724, looked up)
chain: B2 chain
notes: numbers count on the longer isoform B0379.3a.1 (O62011); an untagged form was purified for CD; source: E. coli BL21(DE3) derivative; co-expressed with MBP-tagged MUT-8 constructs, in lysate; co-expressed with MUT-8^NTD and purified as complex; purified
Work on B3 yielded a Kd [2] of ~13 µM.
